Results reported in US20240117030A1 (Pfizer, published 2024).

How the values were obtained:
[1] = target: T1, recombinant human IL-23 (p19+p40) (human, UniProt Q9NPF7 20-189; P29460 23-328); assay: SPR (Biacore T200, 37 C), antibody captured by anti-human Fc, cytokine injected
T1 sequence (looked up) 1: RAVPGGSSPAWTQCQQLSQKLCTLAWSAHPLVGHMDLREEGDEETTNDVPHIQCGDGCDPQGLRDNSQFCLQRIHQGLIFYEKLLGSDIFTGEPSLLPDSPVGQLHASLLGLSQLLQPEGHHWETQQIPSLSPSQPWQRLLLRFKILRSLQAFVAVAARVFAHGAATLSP
T1 sequence (looked up) 2: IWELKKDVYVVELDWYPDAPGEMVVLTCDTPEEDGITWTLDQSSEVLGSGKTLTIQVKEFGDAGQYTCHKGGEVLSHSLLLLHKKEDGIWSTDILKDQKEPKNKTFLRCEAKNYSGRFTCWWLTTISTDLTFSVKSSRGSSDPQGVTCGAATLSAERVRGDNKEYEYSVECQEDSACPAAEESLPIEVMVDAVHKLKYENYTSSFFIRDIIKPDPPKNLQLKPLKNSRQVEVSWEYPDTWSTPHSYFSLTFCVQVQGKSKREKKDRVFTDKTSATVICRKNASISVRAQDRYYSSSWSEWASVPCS

[2] = target: T2, recombinant human IL-12 (p35+p40) (human, UniProt P29459 23-219; P29460 23-328); assay: as above
T2 sequence (looked up) 1: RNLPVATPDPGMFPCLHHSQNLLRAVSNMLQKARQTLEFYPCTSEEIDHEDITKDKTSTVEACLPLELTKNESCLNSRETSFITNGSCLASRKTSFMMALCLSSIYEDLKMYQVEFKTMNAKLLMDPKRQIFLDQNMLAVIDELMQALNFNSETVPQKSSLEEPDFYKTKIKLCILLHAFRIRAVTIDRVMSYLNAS
T2 sequence (looked up) 2: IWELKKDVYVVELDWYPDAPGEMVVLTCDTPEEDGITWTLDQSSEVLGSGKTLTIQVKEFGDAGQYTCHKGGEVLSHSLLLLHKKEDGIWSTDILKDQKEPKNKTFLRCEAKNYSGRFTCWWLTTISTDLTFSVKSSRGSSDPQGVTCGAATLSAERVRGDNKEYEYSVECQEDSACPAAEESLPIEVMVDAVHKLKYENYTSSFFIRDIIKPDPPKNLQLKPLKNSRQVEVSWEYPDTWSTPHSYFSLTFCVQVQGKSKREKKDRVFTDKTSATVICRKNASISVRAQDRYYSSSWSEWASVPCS

[3] = target: T3, recombinant cynomolgus monkey IL-12 (p35+p40) (cynomolgus monkey, UniProt A0A2K5V4L8 57-253; G7P6S2 23-328); assay: as above
T3 construct: also called Cyno IL-12
T3 sequence (p35): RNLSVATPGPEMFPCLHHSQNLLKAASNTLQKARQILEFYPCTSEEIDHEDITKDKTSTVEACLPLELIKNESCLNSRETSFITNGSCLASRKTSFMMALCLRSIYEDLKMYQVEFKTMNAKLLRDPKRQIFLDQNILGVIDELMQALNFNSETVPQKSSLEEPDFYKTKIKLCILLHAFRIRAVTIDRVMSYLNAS
T3 sequence (p40): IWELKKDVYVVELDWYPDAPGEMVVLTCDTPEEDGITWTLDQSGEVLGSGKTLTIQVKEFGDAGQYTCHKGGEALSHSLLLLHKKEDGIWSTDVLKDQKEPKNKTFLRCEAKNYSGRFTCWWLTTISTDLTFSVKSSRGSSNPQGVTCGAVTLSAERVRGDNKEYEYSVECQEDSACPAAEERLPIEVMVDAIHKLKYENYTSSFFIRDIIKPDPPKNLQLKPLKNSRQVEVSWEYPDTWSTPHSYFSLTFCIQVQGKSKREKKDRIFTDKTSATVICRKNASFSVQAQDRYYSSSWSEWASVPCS

[4] = target: T4, recombinant cynomolgus monkey IL-23 (p19+p40) (cynomolgus monkey, UniProt H6WS56 20-189; G7P6S2 23-328); assay: as above
T4 construct: also called Cyno IL-23
T4 sequence (p19): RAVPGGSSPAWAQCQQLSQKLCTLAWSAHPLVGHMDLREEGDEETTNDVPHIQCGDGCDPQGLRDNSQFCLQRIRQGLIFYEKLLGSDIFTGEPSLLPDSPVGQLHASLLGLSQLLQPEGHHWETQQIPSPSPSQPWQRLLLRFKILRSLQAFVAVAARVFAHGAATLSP
T4 sequence (p40): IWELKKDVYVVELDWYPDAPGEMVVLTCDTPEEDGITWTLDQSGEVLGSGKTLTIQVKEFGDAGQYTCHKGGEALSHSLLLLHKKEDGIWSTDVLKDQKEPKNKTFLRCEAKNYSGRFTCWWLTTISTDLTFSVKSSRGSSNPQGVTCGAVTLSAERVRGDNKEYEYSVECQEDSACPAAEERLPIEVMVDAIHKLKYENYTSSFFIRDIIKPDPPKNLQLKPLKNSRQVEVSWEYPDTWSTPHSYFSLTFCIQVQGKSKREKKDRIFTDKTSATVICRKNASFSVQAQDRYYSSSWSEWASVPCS

human IL-4R alpha [5] = target: T5, human IL-4R alpha (human, UniProt P24394 26-825); assay: cell-based or functional assay
human IL-4R alpha [6] = target: T5, human IL-4R alpha; assay: cell-based or functional assay; remark: listed apart in the source
[7] = target: T6, recombinant human TSLP (glycosylated long form) (human, UniProt Q969D9 29-159); assay: cell-based or functional assay
[8] = target: T6, recombinant human TSLP (glycosylated …); assay: competition ELISA on coated TSLP; competitor biotinylated TSLP-0001 (69 pM)
[9] = target: T6, recombinant human TSLP (glycosylated …); assay: cell-based or functional assay; remark: listed apart in the source
[10] = target: T6, recombinant human TSLP (glycosylated …); assay: cell-based or functional assay; remark: listed apart in the source
human TSLP short form = target: T7, human TSLP short form (human, UniProt Q969D9-2 1-63, limits assumed); assay: SPR (Biacore 8K, 37 C), antibody captured on anti-Fab antibody on a CM5 chip, 300 nM short form TSLP injected (concentration from Example 79)
T7 construct: also called sfTSLP; TSLPsf Avi V5 His 10 Biotin

[11] = target: T8, recombinant human IL-33 (R&D Systems 3625-IL) (human, UniProt O95760 112-270, limits assumed); assay: cell-based or functional assay
T8 sequence (looked up): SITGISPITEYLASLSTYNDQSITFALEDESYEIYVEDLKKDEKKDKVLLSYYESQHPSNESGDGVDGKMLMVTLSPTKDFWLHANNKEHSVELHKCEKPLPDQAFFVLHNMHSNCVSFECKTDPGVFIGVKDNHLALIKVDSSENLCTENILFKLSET

[12] = target: T8, recombinant human IL-33 (R&D Systems …); assay: cell-based or functional assay; remark: listed apart in the source
[13] = target: T9, cynomolgus monkey IL-33 (Pfizer) (cynomolgus monkey, UniProt A0A2K5W3I1 112-269); assay: cell-based or functional assay
T9 sequence: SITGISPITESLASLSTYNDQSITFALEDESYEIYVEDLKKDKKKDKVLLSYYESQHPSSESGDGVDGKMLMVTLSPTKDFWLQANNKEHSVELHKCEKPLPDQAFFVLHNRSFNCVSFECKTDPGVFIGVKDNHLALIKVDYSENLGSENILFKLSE

B1: p40-0003 (antibody, human IgG1, kappa, V domains shown)
VH: EVQLVQSGAEVKKPGESLKISCKGSGYSFTTYWLGWVRQMPGKGLDWIGIMSPVDSDIRYSPSFQGQVTMSVDKSITTAYLQWNSLKASDTAMYYCARRRPGQGYFDFWGQGTLVTVSS
VL: DIQMTQSPSSLSASVGDRVTITCRASQGISSWLAWYQQKPEKAPKSLIYAASSLQSGVPSRFSGSGSGTDFTLTISSLQPEDFATYYCQQYNIYPYTFGQGTKLEIKR
notes: also called p40 mAb; ustekinumab (C230) variable regions on human IgG1 effector-null
Kd [1]: 0.16 nM | Kd [2]: 0.156 nM | Kd [3]: 0.368 nM | Kd [4]: 0.317 nM

B2: Dupilumab (antibody, V domains shown)
VH: EVQLVESGGGLEQPGGSLRLSCAGSGFTFRDYAMTWVRQAPGKGLEWVSSISGSGGNTYYADSVKGRFTISRDNSKNTLYLQMNSLRAEDTAVYYCAKDRLSITIRPRYYGLDVWGQGTTVTVSS
VL: DIVMTQSPLSLPVTPGEPASISCRSSQSLLYSIGYNYLDWYLQKSGQSPQLLIYLGSNRASGVPDRFSGSGSGTDFTLKISRVEAEDVGFYYCMQALQTPYTFGQGTKLEIKR
IC50 (median), IL-4 induced CD23 expression on human monocytes (human IL-4R alpha [5]): 0.104 nM | IC50 (median), IL-13 induced CD23 expression on human monocytes (human IL-4R alpha [6]): 0.0932 nM

B3: TSLP-0100 (antibody, human IgG1, V domains shown)
VH: QMQLVESGGGVVQPGRSLRLSCAASGFTFRTYGMHWVRQAPGKGLEWVAVIWYDGSNKHYADSVKGRFTISRDNSKNTLYLQMNSLRAEDTAVYYCARAPQWELVHEAFDIWGQGTMVTVSS
VL: SYVLTQPPSVSVAPGQTARITCGGNNLGSKSVHWYQQKPGQAPVLVVYDDSDRPSWIPERFSGSNSGNTATLTISRGEAGDEADYYCQVWDSSSDHVVFGGGTKLTVLG
notes: also called IL413TSLP-0100
anti-hTSLP TARC bioactivity (fold change to TSLP-0001) [7]: 0.9 fold | IC50 [8]: 0.87 nM | a-TSLP bioassay (IC50, pM) [9]: 24.6 pM | a-TSLP TARC bioassay (fold change to TSLP-0001) [10]: 0.9 fold

B4: TSLP-0875 (antibody, human IgG1, lambda, V domains shown)
VH: QMQLVESGGGVVQPGRSLRLSCAASGFTFRTYGMHWVRQAPGKGLEWVAVIWYDGSNKHYADSVKGRFTISRDNSKNTLYLQMNSLRAEDTAVYYCARAPQWYLVHEAFDIWGQGTMVTVSS
VL: SYVLTQPPSVSVAPGQTARITCGGNNLGSKSVHWYQQKPGQAPVLVVYDDKDRPSWIPERFSGSNSGNTATLTISRGEAGDEADYYCQVWDSKSDHVVFGGGTKLTVLG
binding result (human TSLP short form): no binding (tested: 300 nM)

B5: IL13433-1258 (antibody)
heavy: EVQLVESGGGLVQPGGSLRLSCAASGFTFSSYWMYWVRQAPGKGLEWVAAITPNAGEDYYPESVKGRFTISRDNAKNSLYLQMNSLRAEDTAVYYCARGQYYYTKYSLGYWGQGTLVTVSSASTKGPSVFPLAPSSKSTSGGTAALGCLVKDYFPEPVTVSWNSGALTSGVHTFPAVLQSSGLYSLSSVVTVPSSSLGTQTYICNVNHKPSNTKVDKKVEPKSCRKTHTCPPCPAPEAAGAPSVFLFPPKPKDTLMISRTPEVTCVVVDVSHEDPEVKFNWYVDGVEVHNAKTKPREEQYNSTYRVVSVLTVLHQDWLNGKEYKCKVSNKALPAPIEKTISKAKGQPREPQVYTLPPSREEMTKNQVSLTCLVKGFYPSDIAVEWESNGQPENNYKTTPPVLDSDGSFFLYSRLTVDKSRWQQGNVFSCSVLHEALHSHYTQKSLSLSPGK
light 1: DIQMTQSPSSLSASVGDRVTITCRASQPIHNHLDWYQQKPGKAPKLLIYFGKNLQEGVPSRFSGSGSGTDFTLTISSLQPEDFATYYCFQYKKGWSFGGGTKVEIKRTVAAPSVFIFPPSDEQLKSGTASVVCLLNNFYPREAKVQWKVDNALQSGNSQESVTEQDSKDSTYSLSSTLTLSKADYEKHKVYACEVTHQGLSSPVTKSFNRGEC
chain 1: DIQMTQSPSSLSASVGDRVTITCKASESVDHFGWSLVHWYQQKPGKAPKLLIYRASNLESGVPSRFSGSGSGTDFTLTISSLQPEDFATYYCQQSNEDPWTFGGGTKVEIKRTVAAPSVFIFPPSDEQLKSGTASVVCLLNNFYPREAKVQWKVDNALQSGNSQESVTEQDSKDSTYSLSSTLTLSKADYEKHKVYACEVTHQGLSSPVTKSFNRGECGGGGSEVTLRESGPALVKPTQTLTLTCTFSGFSLSNFGEGLSWIRQPPGKGLEWLAHIYWDDDKRYNPSLKSRLTISKDTSRNQVVLTMTNMDPVDTATYYCARRETVFYWYFDVWGQGTTVTVSSASTKGPSVFPLAPSSKSTSGGTAALGCLVKDYFPEPVTVSWNSGALTSGVHTFPAVLQSSGLYSLSSVVTVPSSSLGTQTYICNVNHKPSNTKVDKKVEPKSCEKTHTCPPCPAPEAAGAPSVFLFPPKPKDTLMISRTPEVTCVVVDVSHEDPEVKFNWYVDGVEVHNAKTKPREEQYNSTYRVVSVLTVLHQDWLNGKEYKCKVSNKALPAPIEKTISKAKGQPREPQVYTLPPSREEMTKNQVSLTCEVKGFYPSDIAVEWESNGQPENNYKTTPPVLDSDGSFFLYSKLTVDKSRWQQGNVFSCSVLHEALHSHYTQKSLSLSPGK
light 2: DIQMTQSPSSLSASVGDRVTITCRASQSVDEEGDSYMNWYQQKPGKAPKLLIYAASNLESGVPSRFSGSGSGTDFTLTISSLQPEDFATYYCQQSNKDPPTFGGGTKVEIKRTVAAPSVFIFPPSDEQLKSGTASVVCLLNNFYPREAKVQWKVDNALQSGNSQESVTEQDSKDSTYSLSSTLTLSKADYEKHKVYACEVTHQGLSSPVTKSFNRGEC
chain 2: EVQLVESGGGLVQPGGSLRLSCAASGFTFSSYAMSWVRQAPGKGLEWVASISSGDTTYYPDSVKGRFTISRDNAKNSLYLQMNSLRAEDTAVYYCARNEGYYFGLTLWGQGTLVTVSSASTKGPSVFPLAPSSKSTSGGTAALGCLVKDYFPEPVTVSWNSGALTSGVHTFPAVLQSSGLYSLSSVVTVPSSSLGTQTYICNVNHKPSNTKVDKKVEPKSC
IC50 (pM) HEK-Blue IL-33 SEAP (mean) [11]: 13.4 pM | IC50, IL-33-induced SEAP activity in HEK-Blue IL-33 SEAP cells (median) [12]: 0.0134 nM | IC50, IL-33-induced SEAP activity in HEK-Blue IL-33 SEAP cells (median) [13]: 0.274 nM
